Reference: the supplement of paper PMC10126150
± gives the standard deviation of the averaged measurements.

System: ATP
Test: switch fluorescence ratio, 500 uM ATP over buffer (Cy3 cluster intensity, sum of 5 cycles each) (fold (ratio)); higher = stronger signal-on switching upon ATP binding; sequences stand for … in TCGTCGGCAGCGTCAGATGTGTATAAGAGACAGTTTTTTTTTTTTTTTTTTTTTTTTT…TC
Conditions: aptamer strand: ATP DNA aptamer (quencher-CACCTGGGGGAGTATTGCGGAGGAAGG + anchor), 100 nM annealed; ATP concentration: 500 uM
Method in brief: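 The fluorescence ratio divides summed target-cycle Cy3 intensity by summed buffer-cycle Cy3 intensity for each cluster and is averaged per switch-domain sequence. Cy3-labelled switching-strand clusters on a modified Illumina MiSeq flow-cell were annealed to 100 nM quencher-labelled ATP aptamer, then imaged in selection buffer and again after 15 min with 500 uM ATP at 22 °C. Five such cycles were run, with NaOH stripping and re-annealing between them, and clusters outside 100-1000 RFU were excluded.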
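Also: ATP exposure 15 min at 22 °C before imaging.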

| Sequence | switch fluorescence ratio |
| --- | --- |
| ATGTATGTAA | 1.01 ± 0.018 |
| GGGGTTGGCT | 0.995 ± 0.03 |
| TTATCGGTCT | 0.9849 ± 0.0065 |
| TTAAATTTTT | 1.01 ± 0.041 |
| ACGCTGCCAG | 1.04 ± 0.02 |
| TTTAAGTAGG | 1.02 ± 0.048 |
| ATAGGTCTAT | 1.04 ± 0.065 |
| CTCATAACAG | 0.996 ± 0.015 |
| CGGTAACCGC | 0.994 ± 0.098 |
| TATTTATTGC | 1.01 ± 0.037 |
| TTAGGCGTTC | 0.9892 ± 0.0096 |
| TCTGAGAGAG | 0.9823 ± 0.0032 |
| AGAGTATTTT | 0.999 ± 0.028 |
| CTATGGGGGT | 0.997 ± 0.024 |
| GCGGACACGC | 1.02 ± 0.014 |
| ATGTCGTGGC | 1 ± 0.048 |
| AGGAAGCTCT | 1.03 ± 0.023 |
| GCTACTTAAA | 1.03 ± 0.025 |
| TAATGAAAAA | 1 ± 0.039 |
| AGAAGAGGTG | 1.07 ± 0.029 |
| TAATGAGGCT | 1.03 ± 0.014 |
| TAAGGGCCTT | 0.992 ± 0.026 |
| CGAAGTATAG | 1.37 ± 0.038 |

| Sequence | switch fluorescence ratio |
| --- | --- |
| GCGTATGGAC | 1.01 ± 0.02 |
| CGTATATTGT | 0.983 ± 0.061 |
| AAATCGGAAT | 1.25 ± 0.27 |
| GAGTCATGAG | 1.06 ± 0.049 |
| GAGGTTGGAT | 0.982 ± 0.016 |
| GCGCAGTCGG | 1.034 ± 0.0048 |
| GGCCTTATTG | 1 ± 0.031 |
| TTAACGCGGA | 1.03 ± 0.011 |
| TGAGAAAAAT | 0.973 ± 0.018 |
| TTGGGGAACG | 1.41 ± 0.62 |
| TTAAGGTTGG | 0.993 ± 0.031 |
| GGGGTGAAGC | 1.02 ± 0.036 |
| GGGAATTCTA | 0.991 ± 0.021 |
| CAATTCCGTG | 1.02 ± 0.022 |
| TATTTGATTG | 1.001 ± 0.0041 |
| ACATGTGTTT | 1.03 ± 0.028 |
| CAGCCTGGGC | 0.984 ± 0.016 |
| GGATAGTCGG | 1 ± 0.028 |
| AAAACGAATG | 1.05 ± 0.065 |
| TAAGGGGAAT | 1 ± 0.039 |
| AAGCCGCTCG | 1 ± 0.015 |
| AATGGAGGAG | 1.01 ± 0.023 |
| TATTGGATGC | 0.97 ± 0.032 |

| Sequence | switch fluorescence ratio |
| --- | --- |
| GTTGGGGATC | 0.991 ± 0.025 |
| AAGCCAGGGG | 1.46 ± 0.0077 |
| TACCGGGGTA | 1.01 ± 0.03 |
| ATTTTCGGCT | 0.99 ± 0.0036 |
| CGTATCCGTA | 0.987 ± 0.042 |
| TATTATAAAT | 0.98 ± 0.016 |
| AATAAATAGG | 0.9953 ± 0.0053 |
| GGGTGAATGT | 0.993 ± 0.041 |
| AATTAGAATG | 0.974 ± 0.029 |
| TTAGGGCATT | 1.11 ± 0.2 |
| GTGAAATTTT | 1.01 ± 0.039 |
| CGCTGGGATT | 0.9913 ± 0.0057 |
| AGTTAGGAAG | 0.973 ± 0.011 |
| ATACGAACGT | 0.9928 ± 0.0019 |
| ACGCTACATT | 1.39 ± 0.031 |
| TTCGAGGAGA | 1.01 ± 0.011 |
| ACTCAGATTG | 1.05 ± 0.056 |
| GTTTGTTGTT | 0.9819 ± 0.0016 |
| TGGCTTCGGC | 0.9979 ± 0.0053 |
| TTTTTGTTC | 0.99 ± 0.023 |
| TCTTCCTAGA | 1.031 ± 0.01 |
| TTTAATAGTG | 0.971 ± 0.014 |
| TTTCCGACGG | 1.57 ± 0.79 |

| Sequence | switch fluorescence ratio |
| --- | --- |
| GGGTTAGGAG | 0.99 ± 0.029 |
| CATGTACTTT | 1.08 ± 0.031 |
| GTGGGCGGGC | 1.02 ± 0.093 |
| CGGTGGGGGT | 0.988 ± 0.022 |
| AAAAGGGCGC | 1.03 ± 0.045 |
| AGAGTGATGC | 1 ± 0.087 |
| TATAATCGAG | 1 ± 0.014 |
| ATTCTTGGGT | 1 ± 0.075 |
| ATGGAAAATT | 1.04 ± 0.02 |
| GTGATGAGCG | 0.979 ± 0.037 |
| AATTACTTCT | 1.042 ± 0.0026 |
| TGGGATGTGG | 0.986 ± 0.019 |
| GCGTTGGGAC | 1.042 ± 0.0036 |
| AGGAGGGTGG | 1.02 ± 0.044 |
| GAATTCGGGA | 1 ± 0.013 |
| TAGGGAATCA | 0.97 ± 0.014 |
| GGGGGGTTGT | 1.03 ± 0.17 |
| TGAGGTCACG | 0.982 ± 0.036 |
| CAGTACCTAA | 1.039 ± 0.0019 |
| CGGTACCGGG | 1.022 ± 0.0061 |
| TAGAGAGGCG | 0.9981 ± 0.0084 |
| AGGCTCATGG | 1.028 ± 0.0089 |
| CTCATCGGTC | 1.02 ± 0.035 |

| Sequence | switch fluorescence ratio |
| --- | --- |
| TGAAAATCGG | 0.965 ± 0.02 |
| TGGAGTATTT | 0.9525 ± 0.005 |
| TGGAGGTCTA | 1 ± 0.018 |
| TCTGATTTGG | 0.978 ± 0.028 |
| CCCCGAAACT | 2.28 ± 1.5 |
| GCAATTGCCT | 0.989 ± 0.029 |
| ACTGGTTGGG | 0.966 ± 0.018 |
| AGTATCTGGG | 0.9886 ± 0.0094 |
| TGGTCAACTA | 1 ± 0.02 |
| TCAGATCTGT | 1 ± 0.024 |
| GTGCATGTGG | 0.9701 ± 0.0056 |
| GGGGTTCACG | 0.988 ± 0.005 |
| TGTACGAGAA | 1.003 ± 0.0035 |
| GATCCTGGGT | 0.974 ± 0.034 |
| ACATTTTAAG | 1 ± 0.026 |
| AAAGTTTTCC | 1.08 ± 0.074 |
| GGGGGATCGA | 1.04 ± 0.086 |
| GCAAAAAAAG | 0.96 ± 0.077 |
| GGGTTGTTAC | 1.14 ± 0.069 |
| ACGGAGTTAC | 1.84 ± 0.18 |
| CTGGATGGTG | 0.98 ± 0.051 |
| TGGGGACGCT | 0.9977 ± 0.004 |
| AGGCTTTCTC | 1.14 ± 0.11 |

| Sequence | switch fluorescence ratio |
| --- | --- |
| ATCGTATTAC | 1.46 ± 0.041 |
| TGGGAAGTTC | 1.04 ± 0.046 |
| TGGAGAAGTA | 1.09 ± 0.2 |
| GCTTCCAGGG | 1.14 ± 0.094 |
| TAGGGTTAAG | 0.9994 ± 0.004 |
| TCCCCGGTCA | 1.09 ± 0.15 |
| GATAATTAGG | 1.01 ± 0.02 |
| TTTCAGGTTA | 1.06 ± 0.012 |
| TGCAAGGGGG | 1.06 ± 0.077 |
| CACCTGGGGG | 1.13 ± 0.11 |
| CGGTTTAGCG | 0.98 ± 0.029 |
| GACGTCCCAG | 0.966 ± 0.061 |
| AAATCCTATT | 0.982 ± 0.016 |
| GAACGGCATG | 1.04 ± 0.015 |
| TTGGGCAACT | 1.06 ± 0.07 |
| AAACTCTCCA | 1.04 ± 0.02 |
| ATGAGTTGGG | 0.999 ± 0.024 |
| GGGTGATGGA | 0.991 ± 0.026 |
| ATAAATGGGC | 0.972 ± 0.014 |
| TTTGGGCGAG | 0.976 ± 0.045 |
| GAATGCAAAG | 1.03 ± 0.041 |
| TTTTGACCGA | 0.976 ± 0.073 |
| ACGTCGTAGG | 1.05 ± 0.016 |

| Sequence | switch fluorescence ratio |
| --- | --- |
| TGTCGGGGTA | 0.995 ± 0.016 |
| GACAGGGGGG | 1.01 ± 0.085 |
| GGTTCCGTGG | 0.994 ± 0.023 |
| TGTGCGTGAG | 0.9776 ± 0.0015 |
| CGAAATGTCC | 1.061 ± 0.002 |
| AAGTTATGGC | 0.9598 ± 0.0046 |
| ATGGTGGATT | 0.965 ± 0.025 |
| TTTTTATTAG | 0.983 ± 0.027 |
| TTTCAAAGTA | 0.9657 ± 0.0071 |
| CGGATGATGA | 1.02 ± 0.089 |
| GCCCAGTCCT | 1.03 ± 0.02 |
| CGTGGGGGCT | 1 ± 0.019 |
| CTTGCTGTTG | 1.0031 ± 0.00076 |
| CACTCTAGGC | 1.07 ± 0.02 |
| TCGTTGGGAC | 0.979 ± 0.021 |
| ACAAGGGCAT | 1.03 ± 0.025 |
| AGTTTGCGGC | 0.94 ± 0.039 |
| CGATTTTTGT | 0.982 ± 0.02 |
| GGGATGGGGG | 1 ± 0.043 |
